In patent US20050042213:
Where two headings read alike, the source gives them in different places.

Legend:
[1] = test system: T1, pro-heparanase (H60), purified recombinant human 60 kDa latent heparanase
T1 sequence: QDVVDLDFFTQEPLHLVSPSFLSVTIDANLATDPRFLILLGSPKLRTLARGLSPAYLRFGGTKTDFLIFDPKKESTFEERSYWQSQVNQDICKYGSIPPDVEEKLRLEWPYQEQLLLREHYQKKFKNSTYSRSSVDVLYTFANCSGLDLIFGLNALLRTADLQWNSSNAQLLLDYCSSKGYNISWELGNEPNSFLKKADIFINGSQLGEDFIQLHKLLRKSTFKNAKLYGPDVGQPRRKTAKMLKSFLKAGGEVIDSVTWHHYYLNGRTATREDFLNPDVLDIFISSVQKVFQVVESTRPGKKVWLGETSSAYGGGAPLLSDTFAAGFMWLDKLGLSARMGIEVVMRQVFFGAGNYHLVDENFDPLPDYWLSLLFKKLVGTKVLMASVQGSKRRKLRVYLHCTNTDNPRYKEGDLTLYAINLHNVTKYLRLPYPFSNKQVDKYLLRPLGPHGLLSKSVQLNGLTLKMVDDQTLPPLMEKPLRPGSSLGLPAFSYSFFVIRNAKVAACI

[2] = target: T2, pro-heparanase (H60), purified recombinant human 60 kDa latent heparanase
T2 chain: T1 sequence

B1: cathepsin G (Sigma, C4428) (enzyme, UniProt P08311 21-244, looked up, species assumed)
Cathepsin G: IIGGRESRPHSRPYMAYLQIQSPAGQSRCGGFLVREDFVLTAAHCWGSNINVTLGAHNIQRRENTQQHITARRAIRHPQYNQRTIQNDIMLLQLSRRVRRNRNVNPVALPRAQEGLRPGTLCTVAGWGRVSMRRGTDTLREVQLRVQRDRQCLRIFGSYDPRRQICVGDRRERKAAFKGDSGGPLLCNNVAHGIVSYGKSSGVPPEVFTRVSSFLPWIRTTMRS
- heparanase activity after treatment (DMB assay) [1]: treatment of the pro heparanase with cathepsin G or elastase activated the H60
- processing of pro-heparanase in vitro (Western blot) [1]: cathepsin G (FIG. 18) and elastase (FIG. 5), both serine proteases, cleave the pro-heparanase in-vitro, at or near the N-terminus of the H45

B2: elastase from human neutrophils (Calbiochem, 324681) (protein)
chain: IVGGRRARPHAWPFMVSLQLRGGHFCGATLIAPNFVMSAAHCVANVNVRAVRVVLGAHNLSRREPTRQVFAVQRIFENGYDPVNLLNDIVILQLNGSATINANVQVAQLPAQGRRLGNGVQCLAMGWGLLGRNRGIASVLQELNVTVVTSLCRRSNVCTLVRGRQAGVCFGDSGSPLVCNGLIHGIASFVRGGCASGLYPDAFAPVAQFVNWIDSIIQ
- heparanase activity after treatment (DMB assay) [2]: treatment of the pro heparanase with cathepsin G or elastase activated the H60
- processing of pro-heparanase in vitro (Western blot) [2]: cathepsin G (FIG. 18) and elastase (FIG. 5), both serine proteases, cleave the pro-heparanase in-vitro, at or near the N-terminus of the H45
